Test system: Saccharomyces cerevisiae
Assay: transcriptional activation domain activity (GFP:mCherry ratio, weighted mean of sorted bins, harmonized to initial dataset scale) (arbitrary fluorescence ratio units); higher = stronger transcriptional activation
Conditions: beta-estradiol 1 µM; induction time 4 h
Procedure, shortened: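 Protein tiles carrying barcodes and fused to an estradiol-inducible synthetic transcription factor were placed at the URA3 locus of yeast diploids with a GFP reporter. Following 4 hours at 30 °C in SC with 1 uM beta-estradiol, cells were sorted into 8 GFP:mCherry bins, barcodes were sequenced, and tiles with fewer than 50 reads were discarded. Activation activity is given as the read-weighted mean of bin median fluorescence, averaged across barcodes and linearly mapped to the initial dataset scale.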

Row | Sequence | transcriptional activation domain activity
1 | MSEEEGPAKSTSNKKRRLQGACDECRKRKVKCDSANMPGNQCSNCNVSHIECT | 42300
2 | GLNLPKISASYLCQYRGSLIGKHFKAIVQLMCFLCYDLLPAPLLNAWLILGRL | 70900
3 | RLPNEWGWVLNVHLCIFYTIAFCFSVYQFCLDVIIGFPQMPWLESLSLLLPVL | 37500
4 | KGRDEEDFPLDYFPVSVEYPTEENAFDPFPPQAFTPAAPSMPISYDNVNERDS | 33400
5 | EIFSSYNASMVQESAGIDFLDFAMPDLIAEANDWAFQGVDSAFFDSVMAGYTL | 147000
6 | SQLPSLRLFNSYLALWAIGLISIMLFLLIATWHYARVDWQMQVLAVHHVLNLS | 34800
7 | GSKGAMRARAEERGEGGEGGEREEGREGRGERRGGGRGGEGRERERGGREGRG | 25000
8 | YVVVVLTAMQVGLATETLAHNKAFVTISYGFSIFSIFIPIVFTLLLLLVFFFV | 19400
9 | DSPVDRAMNTPLQQQEGLKAELPHDFLFQHGTDDTMYNLTDDLSSSLSSSINS | 68200
10 | KSGCGYILGHINIFQPINWILVTSSKVFPIDYILFLLLVMFFFSASIVGIATV | 34400
11 | RSKHWEMLSVLHAGMVLLTAWFFFHCIDLIIHLERARVAYGYIVVPALFDILR | 46500
12 | AADGSPAPRPNAICIHEVDQGIQWKHTNHRTGKAVVVRKRQLVLQQIITVANY | 44500
13 | MGRELVLFIFFFFLFFFPFFFPLLLPLLLSSVRLVDIFLLKKYYLINLSLAYP | 37400
14 | EKTKRKKKSATGATKRAGSGEAKPKRQRKKKGRRGESGDEEESGDEEGAERRA | < 6570
15 | TPSTCLSFLPFFPLLLPLFFSFPLSLIFFLCNFSFQFFFSSCFLSFYLFVVSF | 66100
16 | FHFHLHSSISFPFPSLSLPFPFFPTSSSSSSPFLLHLFPFPSLFFPLLLLLLF | 56400
17 | MANVRFFVGLQRLFPFLAFHHLLMLCHIIVIILLSILLAGCSSYSSMINVYIL | 70400

Row | Sequence | transcriptional activation domain activity
18 | MPLCSLHTYKGGWLWLWWLRWWWRNNNCEALNFSFFFFFFFFLFLFRGVDGVL | 66000
19 | SYFIAAIINWEMSGFFLFSYEYVHKDLNLGCSNLYFTWYALFKEYGAPLVPMS | 45100
20 | SEEETSRSRSSKKHAISSGSDSDRDSRKVRKSRHSSSDEERYQKSHKSSSRRR | 52400
21 | KSKKTEAEAEEEEVTEEVKPEKKEKKEKKEKKEKKRKRDAEEDAAETKPAEKA | 17600
22 | MLVVELLPAIESFFGHIFCTDFMFCFLFFYIIYIFFFSRFSVIANYTVMSLYF | 85300
23 | MFLLVLYPILHLLFLPCKYQYFQIFIRLLSQLPLLFFFCNTFWFFSTSVFFLN | 69600
24 | MYVLARVRMFSSGSRLLRLDRVRGYMLWLILLVVYVYLALTCISFRPPFFYHS | 71600
25 | PSPPKCQVPTLYAVIFRILAYLRLLDAFLFHVYILLTLHELWLIIWIPHHHQS | 41400
26 | GKRARGVGKLRPSVVLYNELHKDGEGVGEVARRDLVGSSKGKGRSGVDTLLVV | 59800
27 | EAPAPKKARGRPKKAAVKEDDAGSEEEAPAPKKAKGRLPKAVLKEEAESEAEA | 12900
28 | RLRLSCYIMMCVVTSYSTWAIVSGYFTCVPVAKFWDPTIKGHCLNFQALWFFN | 61900
29 | AVWPLSERSKFHNIISVDLSDLGDVINPDVGTITELVCFDESIADLYPVGLDS | 122000
30 | MWTSLGCYSCLLCLLLHVVYVPSLLVPSQHPFLSSCLGAVGLTFTWMICCFFP | 56500
31 | APPAAAAAAAAAPAKKAKKAKKAKKAGLLQKAKKAKKAKKAKKAAAAAAAPAA | 8130
32 | IGVRFDTSIKFINGHLERFLAYLGDPLLKQLCSGEILRRLLLLIIDPPILWND | 79200
33 | RKPEPAGEKAEGAQSGGEGQNGEGRRRGGGRGRGRARGRGGRGGRGGRGQRNA | < 6570
34 | AVPGEVTEAEANGEAKAEGAAATTDEAAKPKKKKKSKSRKAKKTEDGTAPEEG | 37900

From the supplement of paper PMC12636428
